According to the RNAGym collection of RNA variant scans (doi:10.1093/molbev/msab373):

B1: Azoarcus group I ribozyme (parent)
chain: GUGCCUUGCGCCGGGAAACCACGCAAGGGAUGGUGUCAAAUUCGGCGAAACCUAAGCGCCCGCCCGGGCGUAUGGCAACGCCGAGCCAAGCUUCGGCGCCUGCGCCGAUGAAGGUGUAGAGACUAGACGGCACCCACCUAAGGCAAACGCUAUGGUGAAGGCAUAGUCCAGGGAGUGGCGAAAGUCACACAAACCGG

Variants of: B1
Experiment: reverse-splicing fitness (ratio to wild type); higher = more active; in vitro selection; Mg2+ level not given
Summary of the method: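 An in vitro group I ribozyme library with randomized positions was T7-transcribed and gel-purified. In triplicate, 10 pmol RNA in EPPS pH 7.5 was reacted with 50 pmoles of a 30-nt RNA substrate for 1 h at 37 °C across several added MgCl2 levels (1–48 mM), then stopped with EDTA. Products were reverse transcribed from a substrate-complementary primer, PCR-amplified and sequenced (HiSeq 4000). Fitness is a variant's read proportion after selection over that before, normalised to wild type.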

With C82A A111C A120C A145G C150A U176G as the variant, how does the reverse-splicing fitness read?
The reverse-splicing fitness was 0.00865.

Which reverse-splicing fitness does the source give for C82A A111C A120C A145G C150G here?
Its reverse-splicing fitness is 0.00852.

For C82A A111C A120C A145G C150G C169A, which reverse-splicing fitness is on record?
Its reverse-splicing fitness is 0.00894.

With C82A A111C A120C A145G C150G C169A U176A as the variant, how does the reverse-splicing fitness read?
Its reverse-splicing fitness is 0.0153.

Which reverse-splicing fitness does the source give for C82A A111C A120C A145G C150G C169A U176C here?
Its reverse-splicing fitness is 0.0121.

With C82A A111C A120C A145G C150G C169A U176G as the variant, how does the reverse-splicing fitness read?
Its reverse-splicing fitness is 0.00798.

With C82A A111C A120C A145G C150G C169G as the variant, how does the reverse-splicing fitness read?
The reverse-splicing fitness was 0.00793.

With C82A A111C A120C A145G C150G C169G U176A as the variant, how does the reverse-splicing fitness read?
The reverse-splicing fitness was 0.0109.

Which reverse-splicing fitness does the source give for C82A A111C A120C A145G C150G C169G U176C here?
The reverse-splicing fitness was 0.0131.

With C82A A111C A120C A145G C150G C169G U176G as the variant, how does the reverse-splicing fitness read?
The reverse-splicing fitness was 0.00642.

Which reverse-splicing fitness does the source give for C82A A111C A120C A145G C150G C169U here?
The reverse-splicing fitness was 0.00903.

Which reverse-splicing fitness does the source give for C82A A111C A120C A145G C150G C169U U176A here?
Its reverse-splicing fitness is 0.0109.

For C82A A111C A120C A145G C150G C169U U176C, which reverse-splicing fitness is on record?
The reverse-splicing fitness was 0.0109.

With C82A A111C A120C A145G C150G C169U U176G as the variant, how does the reverse-splicing fitness read?
Its reverse-splicing fitness is 0.00808.

With C82A A111C A120C A145G C150G U176A as the variant, how does the reverse-splicing fitness read?
Its reverse-splicing fitness is 0.00652.

Which reverse-splicing fitness does the source give for C82A A111C A120C A145G C150G U176C here?
The reverse-splicing fitness was 0.0113.

For C82A A111C A120C A145G C150G U176G, which reverse-splicing fitness is on record?
The reverse-splicing fitness was 0.00679.

Which reverse-splicing fitness does the source give for C82A A111C A120C A145G C150U here?
The reverse-splicing fitness was 0.0241.

Which reverse-splicing fitness does the source give for C82A A111C A120C A145G C150U C169A here?
Its reverse-splicing fitness is 0.0108.

With C82A A111C A120C A145G C150U C169A U176A as the variant, how does the reverse-splicing fitness read?
The reverse-splicing fitness was 0.0159.

For C82A A111C A120C A145G C150U C169A U176C, which reverse-splicing fitness is on record?
Its reverse-splicing fitness is 0.0162.

For C82A A111C A120C A145G C150U C169A U176G, which reverse-splicing fitness is on record?
The reverse-splicing fitness was 0.00826.

For C82A A111C A120C A145G C150U C169G, which reverse-splicing fitness is on record?
The reverse-splicing fitness was 0.00829.

For C82A A111C A120C A145G C150U C169G U176A, which reverse-splicing fitness is on record?
The reverse-splicing fitness was 0.0127.

Which reverse-splicing fitness does the source give for C82A A111C A120C A145G C150U C169G U176C here?
Its reverse-splicing fitness is 0.0166.

With C82A A111C A120C A145G C150U C169G U176G as the variant, how does the reverse-splicing fitness read?
The reverse-splicing fitness was 0.00711.

For C82A A111C A120C A145G C150U C169U, which reverse-splicing fitness is on record?
Its reverse-splicing fitness is 0.0133.

For C82A A111C A120C A145G C150U C169U U176A, which reverse-splicing fitness is on record?
Its reverse-splicing fitness is 0.0121.

Which reverse-splicing fitness does the source give for C82A A111C A120C A145G C150U C169U U176C here?
Its reverse-splicing fitness is 0.0128.

For C82A A111C A120C A145G C150U C169U U176G, which reverse-splicing fitness is on record?
Its reverse-splicing fitness is 0.00717.

With C82A A111C A120C A145G C150U U176A as the variant, how does the reverse-splicing fitness read?
The reverse-splicing fitness was 0.0119.

With C82A A111C A120C A145G C150U U176C as the variant, how does the reverse-splicing fitness read?
Its reverse-splicing fitness is 0.0208.

Which reverse-splicing fitness does the source give for C82A A111C A120C A145G C150U U176G here?
Its reverse-splicing fitness is 0.00852.

With C82A A111C A120C A145G C169A as the variant, how does the reverse-splicing fitness read?
Its reverse-splicing fitness is 0.00886.

For C82A A111C A120C A145G C169A U176A, which reverse-splicing fitness is on record?
The reverse-splicing fitness was 0.0249.

Which reverse-splicing fitness does the source give for C82A A111C A120C A145G C169A U176C here?
Its reverse-splicing fitness is 0.0288.

For C82A A111C A120C A145G C169A U176G, which reverse-splicing fitness is on record?
Its reverse-splicing fitness is 0.00684.

For C82A A111C A120C A145G C169G, which reverse-splicing fitness is on record?
The reverse-splicing fitness was 0.00846.

For C82A A111C A120C A145G C169G U176A, which reverse-splicing fitness is on record?
Its reverse-splicing fitness is 0.0212.

Which reverse-splicing fitness does the source give for C82A A111C A120C A145G C169G U176C here?
Its reverse-splicing fitness is 0.0247.

With C82A A111C A120C A145G C169G U176G as the variant, how does the reverse-splicing fitness read?
Its reverse-splicing fitness is 0.00694.

With C82A A111C A120C A145G C169U as the variant, how does the reverse-splicing fitness read?
The reverse-splicing fitness was 0.0141.

Which reverse-splicing fitness does the source give for C82A A111C A120C A145G C169U U176A here?
The reverse-splicing fitness was 0.0165.

Which reverse-splicing fitness does the source give for C82A A111C A120C A145G C169U U176C here?
The reverse-splicing fitness was 0.0138.

Which reverse-splicing fitness does the source give for C82A A111C A120C A145G C169U U176G here?
The reverse-splicing fitness was 0.00652.

Which reverse-splicing fitness does the source give for C82A A111C A120C A145G U176A here?
The reverse-splicing fitness was 0.0152.

For C82A A111C A120C A145G U176C, which reverse-splicing fitness is on record?
Its reverse-splicing fitness is 0.0274.

With C82A A111C A120C A145G U176G as the variant, how does the reverse-splicing fitness read?
Its reverse-splicing fitness is 0.00691.

For C82A A111C A120C A145U, which reverse-splicing fitness is on record?
Its reverse-splicing fitness is 0.0241.

Which reverse-splicing fitness does the source give for C82A A111C A120C A145U C150A here?
Its reverse-splicing fitness is 0.00979.

Which reverse-splicing fitness does the source give for C82A A111C A120C A145U C150A C169A here?
The reverse-splicing fitness was 0.00876.

Which reverse-splicing fitness does the source give for C82A A111C A120C A145U C150A C169A U176A here?
Its reverse-splicing fitness is 0.0155.

With C82A A111C A120C A145U C150A C169A U176C as the variant, how does the reverse-splicing fitness read?
Its reverse-splicing fitness is 0.0154.

Which reverse-splicing fitness does the source give for C82A A111C A120C A145U C150A C169A U176G here?
The reverse-splicing fitness was 0.00859.

Which reverse-splicing fitness does the source give for C82A A111C A120C A145U C150A C169G here?
The reverse-splicing fitness was 0.00824.

With C82A A111C A120C A145U C150A C169G U176A as the variant, how does the reverse-splicing fitness read?
The reverse-splicing fitness was 0.0154.

For C82A A111C A120C A145U C150A C169G U176C, which reverse-splicing fitness is on record?
The reverse-splicing fitness was 0.0188.

Which reverse-splicing fitness does the source give for C82A A111C A120C A145U C150A C169G U176G here?
The reverse-splicing fitness was 0.00745.

Which reverse-splicing fitness does the source give for C82A A111C A120C A145U C150A C169U here?
Its reverse-splicing fitness is 0.0124.

For C82A A111C A120C A145U C150A C169U U176A, which reverse-splicing fitness is on record?
Its reverse-splicing fitness is 0.014.

Which reverse-splicing fitness does the source give for C82A A111C A120C A145U C150A C169U U176C here?
The reverse-splicing fitness was 0.0143.

Which reverse-splicing fitness does the source give for C82A A111C A120C A145U C150A C169U U176G here?
The reverse-splicing fitness was 0.00918.

With C82A A111C A120C A145U C150A U176A as the variant, how does the reverse-splicing fitness read?
Its reverse-splicing fitness is 0.0112.

Which reverse-splicing fitness does the source give for C82A A111C A120C A145U C150A U176C here?
The reverse-splicing fitness was 0.0164.

For C82A A111C A120C A145U C150A U176G, which reverse-splicing fitness is on record?
The reverse-splicing fitness was 0.00638.

For C82A A111C A120C A145U C150G, which reverse-splicing fitness is on record?
The reverse-splicing fitness was 0.00822.

For C82A A111C A120C A145U C150G C169A, which reverse-splicing fitness is on record?
Its reverse-splicing fitness is 0.00977.

Which reverse-splicing fitness does the source give for C82A A111C A120C A145U C150G C169A U176A here?
Its reverse-splicing fitness is 0.00956.

With C82A A111C A120C A145U C150G C169A U176C as the variant, how does the reverse-splicing fitness read?
The reverse-splicing fitness was 0.0125.

Which reverse-splicing fitness does the source give for C82A A111C A120C A145U C150G C169A U176G here?
The reverse-splicing fitness was 0.00744.

For C82A A111C A120C A145U C150G C169G, which reverse-splicing fitness is on record?
Its reverse-splicing fitness is 0.00675.

For C82A A111C A120C A145U C150G C169G U176A, which reverse-splicing fitness is on record?
The reverse-splicing fitness was 0.00819.

Which reverse-splicing fitness does the source give for C82A A111C A120C A145U C150G C169G U176C here?
The reverse-splicing fitness was 0.00621.

Which reverse-splicing fitness does the source give for C82A A111C A120C A145U C150G C169G U176G here?
Its reverse-splicing fitness is 0.00725.

For C82A A111C A120C A145U C150G C169U, which reverse-splicing fitness is on record?
The reverse-splicing fitness was 0.01.

Which reverse-splicing fitness does the source give for C82A A111C A120C A145U C150G C169U U176A here?
Its reverse-splicing fitness is 0.00763.

With C82A A111C A120C A145U C150G C169U U176C as the variant, how does the reverse-splicing fitness read?
The reverse-splicing fitness was 0.0101.

With C82A A111C A120C A145U C150G C169U U176G as the variant, how does the reverse-splicing fitness read?
Its reverse-splicing fitness is 0.00684.

With C82A A111C A120C A145U C150G U176A as the variant, how does the reverse-splicing fitness read?
Its reverse-splicing fitness is 0.00604.

For C82A A111C A120C A145U C150G U176C, which reverse-splicing fitness is on record?
The reverse-splicing fitness was 0.00803.

For C82A A111C A120C A145U C150G U176G, which reverse-splicing fitness is on record?
The reverse-splicing fitness was 0.00392.

For C82A A111C A120C A145U C150U, which reverse-splicing fitness is on record?
The reverse-splicing fitness was 0.0202.

With C82A A111C A120C A145U C150U C169A as the variant, how does the reverse-splicing fitness read?
The reverse-splicing fitness was 0.00985.

For C82A A111C A120C A145U C150U C169A U176A, which reverse-splicing fitness is on record?
Its reverse-splicing fitness is 0.0153.
